Among the data in article PMC11472067 are fraction of pixels exhibiting FRET (chromatin binding) values, retold here.

This assay concerns the target histone H2B tagged to mCherry (H2B-mCh) (UniProt P06899). In words: FRET or BRET; phasor FLIM-FRET in live HeLa nuclei; donor eGFP-HP1α or eGFP-HP1α_(I165E) (stable, endogenous HP1α knocked down), acceptor H2B-mCh transiently transfected; fraction of pixels exhibiting FRET read as chromatin binding.

In the case of “eGFP tagged to HP1α dimer mutant I165E (eGFP-HP1α_(I165E)) (from UniProt P45973 1-191) (natural protein)”, the fraction of pixels exhibiting FRET (chromatin binding) stood at 11%. Regarding “eGFP tagged to wild type HP1α (eGFP-HP1α) (from UniProt P45973 1-191) (natural protein)”, the fraction of pixels exhibiting FRET (chromatin binding) was found to be 20%.
